Conditions in all cases: source organism: Vaccinia virus WR
The target of one test is HLA-A*68:01. The test is described as follows: IEDB peptide-MHC binding, purified MHC/competitive/radioactivity; filed as Kd, often an IC50 or EC50 that approximates it; ≥ and ≤ were set here for values at or beyond the usual limits of such assays.
Test [1] addresses HLA-A*03:01. Described as above.
Test [2] concerns the target HLA-A*33:01. The test is described as above.
Test [3] concerns the target HLA-A*31:01. Described as above.
The target in test [4] is HLA-A*11:01. Kind of test: IEDB peptide-MHC binding, purified MHC/competitive/radioactivity; ≥ and ≤ were set here for values at or beyond the usual limits of such assays.
In test [5] the target is HLA-A*03:01. Described as above.
Test [6] concerns the target HLA-A*33:01. Described as above.
In test [7] the target is HLA-A*31:01. Described as above.
A further test has as its target HLA-B*45:01. The test is described as follows: IEDB peptide-MHC binding, purified MHC/competitive/radioactivity; filed as Kd, often an IC50 or EC50 that approximates it; ≥ and ≤ were set here for values at or beyond the usual limits of such assays.
In another test the target is HLA-B*44:03. Described as above.
The target in another test is HLA-B*44:02. Described as above.
Test [8] addresses HLA-B*18:01. The description is as above.
Test [9] addresses HLA-B*40:01. Kind of test: IEDB peptide-MHC binding, purified MHC/competitive/radioactivity; ≥ and ≤ were set here for values at or beyond the usual limits of such assays.
The target in test [10] is HLA-B*40:02. The description is as above.
The next test deals with HLA-A*02:06. The test is described as follows: IEDB peptide-MHC binding, purified MHC/competitive/radioactivity; filed as Kd, often an IC50 or EC50 that approximates it; ≥ and ≤ were set here for values at or beyond the usual limits of such assays.
The target in the next test is HLA-A*02:01. Kind of test: IEDB peptide-MHC binding, purified MHC/competitive/radioactivity; ≥ and ≤ were set here for values at or beyond the usual limits of such assays.
The target in the next test is HLA-B*07:02. Described as above.
The next test concerns the target HLA-B*54:01. Described as above.
The next test deals with HLA-B*35:01. The test is described as above.
For another test, the target named is HLA-B*51:01. The test is described as above.
The target of a further test is HLA-B*53:01. Described as above.
Test [11] concerns the target HLA-B*40:01. Kind of test: IEDB peptide-MHC binding, purified MHC/competitive/radioactivity; filed as Kd, often an IC50 or EC50 that approximates it; ≥ and ≤ were set here for values at or beyond the usual limits of such assays.
In test [12] the target is HLA-B*40:02. Described as above.
The target of test [13] is HLA-B*18:01. The test is described as follows: IEDB peptide-MHC binding, purified MHC/competitive/radioactivity; ≥ and ≤ were set here for values at or beyond the usual limits of such assays.
Test [14] concerns the target HLA-A*11:01. Kind of test: IEDB peptide-MHC binding, purified MHC/competitive/radioactivity; filed as Kd, often an IC50 or EC50 that approximates it; ≥ and ≤ were set here for values at or beyond the usual limits of such assays.

On to ATSLDVINY, for which the Kd with HLA-A*68:01 is at least 50 µM; with HLA-A*03:01 [1], 0.625 µM; with HLA-A*33:01 [2], at least 50 µM; with HLA-A*31:01 [3], 10.3 µM. In the test with HLA-A*11:01 [4], the IC50 was 0.0068 µM.

As for YLLVKWYRK, the Kd in the test with HLA-A*68:01 was at least 50 µM. In addition, the IC50 stood at 0.0056 µM in the test with HLA-A*03:01 [5], 0.0036 µM in the test with HLA-A*11:01 [4], 0.114 µM with HLA-A*33:01 [6] and 0.045 µM with HLA-A*31:01 [7].

Take TEYDDHINL: the dissociation constant (Kd) in the test with HLA-B*45:01 was 7.79 µM; with HLA-B*44:03 it was 1.2 µM; with HLA-B*44:02, 0.913 µM; in the test with HLA-B*18:01 [8] it was 0.645 µM. Moreover, the results for the IC50 with HLA-B*40:01 [9] and with HLA-B*40:02 [10] were 0.0075 µM and 0.108 µM, respectively.

As for FLVIAINAM, the dissociation constant (Kd) in the test with HLA-A*02:06 was determined as 0.93 µM. In the test with HLA-A*02:01, the half-maximal inhibitory concentration (IC50) came out at 0.435 µM.

Regarding MPAYIRNTL, the IC50 with HLA-B*07:02 was determined as 0.00053 µM; in the test with HLA-B*54:01, 0.0034 µM; in the test with HLA-B*35:01, 0.019 µM; with HLA-B*51:01, 0.461 µM; with HLA-B*53:01 it was 0.049 µM.

On to DELVDPINY, for which the Kd with HLA-B*45:01 is 12.4 µM; in the test with HLA-B*44:03, 2.67 µM; in the test with HLA-B*40:01 [11] it was 0.529 µM; with HLA-B*40:02 [12] it was 13.3 µM; with HLA-B*44:02, 14.3 µM. For the same sequence, in the test with HLA-B*18:01 [13], the IC50 came to 0.016 µM.

As to AVKDVTITKK, the Kd is 1.62 µM with HLA-A*68:01, 0.519 µM with HLA-A*11:01 [14], at least 50 µM with HLA-A*33:01 [2] and 0.605 µM in the test with HLA-A*31:01 [3]. Further, the IC50 with HLA-A*03:01 [5] is 0.084 µM.
